Measured values: US20140287419A1, “Compositions Having Dicamba Decarboxylase Activity and Methods of Use” (priority 2013, published 2014)

B1: SEQ ID NO:31: reversible 2,6-dihydroxybenzoic acid decarboxylase, Agrobacterium sp. H13-3 (protein, listed as Agrobacterium sp.)
chain: MAQGKVALEEHFAIPETLQDSAGFVPGDYWKELQHRLLDIQDTRLKLMDAHGIETMILSLNAPAVQAIPDKTKAIEIARRANDVLAEECAKRPDRFLAFAALPLQDPDAATEELQRCVNDLGFVGALVNGFSQEGDGQTPLYYDLPQYRPFWGEVEKLDVPFYLHPRNPLPQDSRIYDGHPWLLGPTWAFAQETAVHALRLMASGLFDEHPRLNIILGHMGEGLPYMMWRIDHRNAWVKLPPRYPAKRRFMDYFNENFHITTSGNFRTQTLIDAILEIGADRILFSTDWPFENIDHASDWFNATSIAEADRVKIGRTNARRLFKLDGA
B2: SEQ ID NO:36: hypothetical protein AGRO_1970, Agrobacterium sp. ATCC 31749 (protein, listed as Agrobacterium sp.)
chain: MAQGKVALEEHFAIPETLQDSAGFVPGDYWTELQHRLLDIQDTRLKLMDAHGIETMILSLNAPAVQAIPDKTKAIEIARRANDALAEECAKRPNRFLAFAALPLQDPDAATQELQRCVNDLGFVGALVNGFSQEGDGQIPLYYDLPQYRPFWGEVEKLDVPFYLHPRNPLPQDSRIYDGHPWLLGPTWAFAQETAVHALRLMASGLFDEHPRLNIILGHMGEGLPYMMWRIDHRNAWVKLPPRYPAKRRFVDYFNENFHITTSGNFRTQTLIDAILEIGADRILFSTDWPFENIDHASDWFHATSIAEADRVKIGRTNARRLFKLDGR
B3: SEQ ID NO:30: o-pyrocatechuate decarboxylase, Enterobacter aerogenes KCTC 2190 (protein)
chain: MARGKIALEEHVSTPENNRLWDSTGEANRNGSEYMQDVERRLLDRSIQLEEMAQRNIDHVILSLTSPGAQSILDKAKAVSFARDTNDFIVDNYVKPNPDKFSAFATLALQNPEAAAEELERAVKKLGMKGALINGYTNVKDSEHGLYLDDESMLVFWDKVNELNVPVYLHPREPLEGPARGIYTGYESLIGSAWGFAQETAVHAIRLMMSGLFDRYPNLNLVLGHLGEGLVHMLPRTQHRLYRQRFGCGLGKAEKPLMHYLQNNFIVTTSGHFNTHSLNNAIEVMGADRVMFSVDYPYEDIHQACDWFDPLEMDEGLKEKIAWGNASRVFNIK
modifications: Enterobacter aerogenes
B4: SEQ ID NO:44: amidohydrolase, Mycobacterium avium 104 (protein, listed as Mycobacterium avium)
chain: MARIITVEEHFQHPEVSARVAELTGPAVEGLAEFGNAFSLDPDSTARLGGNRLAHMDQVGIDVQVVSHGNGSPGTLQHPEAVELCRRVNNDLAAQIAENPDRFRGFATLPLYDPAAAAEELRRCVGDLGFVGALIAGSYDGLFLDDERFDPILTAAEAVDFPIYVHPGLPEAPVSQRYYAGSWPASVHMMFSGPAFGWHAEAGIHIVRLILSGALDRHPTLKLLSGHWGELAAFYLERLDETLGLLPTGLERAPSDYYRQQVWITPSGMYNQNQLNFMTAELGAQRIIYSEDFPYVVRDNVSTFLEQAGLSEADTHAIAHTNAEALLRI
B5: SEQ ID NO:34: amidohydrolase, Cupriavidus necator N-1 (protein)
chain: MAQGKIGLEEHFAIPETLNDSAGFVPGDYWKELSRRLLDIQDDRLRQMDENGMEMMLLSLNAPAVQAVPDRKQACELAVRANDFLAEQVSRRPDRFQALAALPLQDPDFATVELTRCVNELGMRGALVNGFSQIDTPDNVVYYDAPQYASFWAAVEKLDVPFYLHPRNPIASWAQIYDGHPWLLGPTWAFGQETAVHALRLMASGLFDRHPALQIVLGHLGEGLPYSLWRIDNRNAWVKAPKTHPAKKTFRHYFQQNFHLTTSGNFHNQTLIDAILEIGADRILFSTDWPFENIDHAAKWFDSASISEADRTKIGRTNAMKLFKLVA
modifications: Cupriavidus necator
B6: SEQ ID NO:28: 5-carboxyvanillate decarboxylase, Sphingomonas paucimobilis (protein, listed as Sphingomonas paucimobilis)
chain: MARLIATEEAVTFQPVVDALRAHSRTDDASLDMILVRDVYGDEPARPAMIGRLSDVTGERLAEMDSNGVDMHLLSLTAPGVQMFDAETGTRLARIANDLMAQTVAANPTRFAGLGTFAPQDPASAAREIERVATQLRLNGLVINSHTNDLYYDDPFFHPVFEAIEASGLALYIHPRAPSKQIDRAFRDYGMNSAIWGYGIETSTNAVRMILSGLFDRFPRLKIVLGHMGEAIPFWLWRLDYMHGNATTFGGAPKLKLKPSEYFRRNFAITTSGVESHAALRYSIEVLGPENVMWAIDYPYQPMAPAVQFIRTAPIPEDVKAMVAGGNAARIFRIT
B7: SEQ ID NO:33: amidohydrolase, Rhizobium leguminosarum bv. viciae 3841 (protein, listed as Rhizobium leguminosarum)
chain: MAQGKIALEEHFAIPETLQDSAGFVPGDYWKELSARLLDIQEKRLRLMDAHGIEKMILSLNAPAVQAIPDRAKALEISRRANDFLAEQCVKNPNRFLGFAALPLQDPDAATQELQRCVTTMGFVGALVNGFSQEGDGTTPLYYDLPQYRSFWAEVEKLNVPFYLHPRNPLPQDSRIYAGHSWLMGPTWAFAQETAVHALRLMGSGLFDEHPALRIIVGHMGEGLPYMMWRIDNRNAWVKVEKSYPAKRPIADYFNENFYITTSGNFRTQSLIDAMLEIGADRILFSADWPFENIDHAANWFDSATISEADRLKIGRTNAVSLFKLDR
B8: SEQ ID NO:43: amidohydrolase, Rhizobium leguminosarum bv. trifolii WSM2304 (protein, listed as Rhizobium leguminosarum)
chain: MAQGKIALEEHFAIPETLQDSAGFVPGDYWTELSARLLDIQDKRLRLMDTHGIEKMILSLNAPAVQAIPDKAKAVEISRRANDFLAEQCVKNPNRFLGFAALPLQDPDAATQELQRCVTTMGFVGALVNGFSQEGDGTTPLYYDLPQYRPFWAEVEKLDVPFYLHPRNPLPQDSRIYAGHSWLMGPTWAFAQETAVHALRLMGSGLFDEHPALRIIVGHMGEGLPYMMWRIDNRNAWVKVEKSYPAKRPIADYFNENFYITTSGNFRTQSLIDAMLEIGADRILFSADWPFENVDHAANWFDSATISEADRLKIGRTNAVSLFKLDR
B9: SEQ ID NO:35: amidohydrolase, Burkholderia sp. CCGE1001 (protein)
chain: MAFKASRKIALEEHFAIDATVQDSAGFVPPSYWAELKRRLLDIHDRRIDEMDRNGVELMVLSLNAPTVQAVPNIKDAYDLSRRANDFLAEQIVKRPERFKGFAALPMQSPDLAARELERCVKELNFVGALVNGFSQVEESGTALYYDLPQYRQFWSVVQALDVPFYLHPRNPLPAHAPIYEGHPWLLGPTWAFGQETAVHALRLMGSGLFDEYPELKIILGHMGEGLPYSMWRIDNRNAWVETQPNYPAKKRIAEYFHKNFWLTTSGNFRTQTLIDAMLEIGSDRILFSTDWPFENVDHAAQWFDDAAISENDRIKIARTNAARLFKLEP
modifications: Burkholderia sp

Test: 14C assay with IPTG-induced recombinant E. coli cells (14CO2 capture from [14C]-carboxyl-labeled dicamba)
Conditions: E. coli cell assay, 108 sequences tested

Molecule | decarboxylation activity of dicamba
B1 | showed decarboxylation activity of dicamba
B2 | showed decarboxylation activity of dicamba
B3 | showed decarboxylation activity of dicamba
B4 | showed decarboxylation activity of dicamba
B5 | showed decarboxylation activity of dicamba
B6 | showed decarboxylation activity of dicamba
B7 | showed decarboxylation activity of dicamba
B8 | showed decarboxylation activity of dicamba
B9 | showed decarboxylation activity of dicamba
